Consider 2 molecules from US20040259798A1.

The target in test [1] is β2 integrins on THP-1 cells. Nature of the test: inhibition of THP-1 cell adhesion to coated LLG-C4-GST.
For test [2], the target named is β2 integrins on THP-1 cells. Briefly: inhibition of THP-1 cell adhesion to coated LLG-C4-GST, phosphatase assay.
The target of test [3] is β2 integrins on THP-1 cells. Briefly: inhibition of THP-1 cell adhesion to coated von Willebrand factor, phosphatase assay.
Test [4] has as its target β2 integrins on THP-1 cells. Nature of the test: inhibition (partial) of THP-1 cell adhesion to coated type IV collagen, phosphatase assay.

Bridge positions count the residues as written; N and C are the ends. Ends that are not written are not given here.

In test [1], CPCFLLGCC (disulfide 1-9, 3-8) [C(1-9;3-8) peptide] came in with a fold less active than C(1-8;3-9) of 20 fold.

Consider CPCFLLGCC (disulfide 1-8, 3-9) [C(1-8;3-9) peptide], for which the IC50 worked out at 20 µM in test [2], 20 µM in test [3] and 200 µM in test [4].

The IC50 is the concentration at which inhibition is half-maximal. High values mean weaker potency, low ones greater potency.
